Patent publication US20220204649A1 (SYSMEX, published 2022)
Substitutions are numbered along the chain they refer to.

B1: 72, 77, 79 variant of humanized anti-HER2 antibody (Fab) (Fab, V domains shown)
VH: EVQLVESGGGLVQPGGSLRLSCAASGFNIKDTYIHWVRQAPGKGLEWVARIYPTNGYTRYADSVKGRFTISARTSKNRARLQMNSLRAEDTAVYYCSRWGGDGFYAMDYWGQGTLVTVSS
VL: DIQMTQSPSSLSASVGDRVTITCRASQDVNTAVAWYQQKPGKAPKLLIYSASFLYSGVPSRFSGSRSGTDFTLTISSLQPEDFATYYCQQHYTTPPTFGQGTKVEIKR
notes: also called Heavy chain 72, 77, 79 variant
B2: light chain 63, 65, 67/heavy chain 72, 77, 79 variant of the anti-HER2 antibody (Fab, V domains shown)
VH: B1 VH
VL: DIQMTQSPSSLSASVGDRVTITCRASQDVNTAVAWYQQKPGKAPKLLIYSASFLYSGVPSRFRGRRRGTDFTLTISSLQPEDFATYYCQQHYTTPPTFGQGTKVEIKR
B3: light chain 63, 65, 67/heavy chain 82B, 83, 84 variant of the anti-HER2 antibody (Fab, V domains shown)
VH: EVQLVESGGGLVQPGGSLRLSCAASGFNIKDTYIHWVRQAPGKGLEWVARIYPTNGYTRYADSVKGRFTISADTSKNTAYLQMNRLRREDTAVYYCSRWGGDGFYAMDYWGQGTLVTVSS
VL: B2 VL
B4: 68, 70, 72 variant of humanized anti-HER2 antibody (Fab) (Fab, V domains shown)
VH: B1 VH with T69R, S71R, R78T, R80Y
VL: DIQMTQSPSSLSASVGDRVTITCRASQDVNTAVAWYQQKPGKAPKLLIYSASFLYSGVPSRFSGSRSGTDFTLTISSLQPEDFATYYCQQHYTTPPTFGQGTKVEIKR
B5: 84, 85, 87 variant of humanized anti-HER2 antibody (Fab) (Fab, V domains shown)
VH: B1 VH with R73D, R78T, R80Y, A88R, E89R, T91R
VL: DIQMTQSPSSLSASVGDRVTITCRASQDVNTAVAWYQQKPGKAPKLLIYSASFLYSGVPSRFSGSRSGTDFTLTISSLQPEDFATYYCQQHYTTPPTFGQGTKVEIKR
B6: 79, 81, 82A variant of humanized anti-HER2 antibody (Fab) (Fab, V domains shown)
VH: B1 VH with R73D, R78T, Q82R, N84R
VL: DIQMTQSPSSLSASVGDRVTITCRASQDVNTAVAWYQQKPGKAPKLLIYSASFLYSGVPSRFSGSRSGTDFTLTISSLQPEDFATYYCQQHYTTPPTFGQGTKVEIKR
B7: 74, 75, 77 variant of humanized anti-HER2 antibody (Fab) (Fab, V domains shown)
VH: B1 VH with R73D, S75R, K76R, R80Y
VL: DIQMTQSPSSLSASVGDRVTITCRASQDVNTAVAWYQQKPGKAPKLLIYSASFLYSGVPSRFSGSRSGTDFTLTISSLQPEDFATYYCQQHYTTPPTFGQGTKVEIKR

biological target: T1, HER2 (UniProt P04626 23-652, limits assumed); assay: SPR (Biacore 8K), Example 3, as in Example 1
T1 construct: also called antigen of the anti-HER2 antibody
Procedure: (§1) Affinity of the prepared variants was measured using Biacore (registered trademark) 8K (GE Healthcare) in the same manner as in Example 1.

Kd [nM]	Binder
0.0321	B1
0.0126	B2
0.0357	B3

biological target: T1, HER2; assay: SPR (Biacore 8K), as in Example 1
Procedure: as §1

Kd [nM]	Binder
0.0208	B4
0.00505	B1
0.0211	B5
0.0338	B6
0.0443	B7
